These results are taken from patent publication US20180064808A1 (Hoffmann-La Roche, published 2018).

Experiment [1] concerns the target T1, human Fibroblast Activation Protein (FAP) (human, UniProt Q12884 27-760).
T1 construct: also called recombinant human FAP; Seprase
The experiment in a line: Affinity human [nM], IgG format; method not stated.

In experiment [2] the target is T2, murine FAP (murine, UniProt P97321 27-761).
T2 construct: also called mouse FAP
Kind of experiment: SPR (Biacore), simultaneous binding. Background: SPR reads the build-up and loss of mass on a sensor chip optically.

For experiment [3], the target named is T1, human Fibroblast Activation Protein …. The experiment in a line: SPR (Biacore), simultaneous binding.

T1 sequence (Q12884 27-760 limits assumed): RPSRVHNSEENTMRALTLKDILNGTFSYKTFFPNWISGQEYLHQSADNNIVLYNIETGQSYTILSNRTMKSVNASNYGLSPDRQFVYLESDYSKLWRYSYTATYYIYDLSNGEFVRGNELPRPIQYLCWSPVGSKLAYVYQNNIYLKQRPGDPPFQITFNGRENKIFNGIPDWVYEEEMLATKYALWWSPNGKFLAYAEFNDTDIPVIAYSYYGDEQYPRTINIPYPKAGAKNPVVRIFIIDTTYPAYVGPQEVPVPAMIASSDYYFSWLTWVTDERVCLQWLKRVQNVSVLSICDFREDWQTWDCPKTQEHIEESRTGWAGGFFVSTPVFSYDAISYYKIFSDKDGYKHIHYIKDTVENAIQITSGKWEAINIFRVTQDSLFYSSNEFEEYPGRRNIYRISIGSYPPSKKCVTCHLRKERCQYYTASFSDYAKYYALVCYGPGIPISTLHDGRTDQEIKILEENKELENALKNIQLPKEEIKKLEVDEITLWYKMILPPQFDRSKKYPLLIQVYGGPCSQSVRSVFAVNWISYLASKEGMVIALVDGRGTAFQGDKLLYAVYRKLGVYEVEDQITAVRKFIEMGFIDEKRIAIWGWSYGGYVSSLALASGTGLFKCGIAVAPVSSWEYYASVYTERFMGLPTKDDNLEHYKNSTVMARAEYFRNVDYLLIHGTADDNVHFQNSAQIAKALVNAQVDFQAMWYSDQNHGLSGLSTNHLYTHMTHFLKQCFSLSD
T2 sequence (P97321 27-761 limits assumed): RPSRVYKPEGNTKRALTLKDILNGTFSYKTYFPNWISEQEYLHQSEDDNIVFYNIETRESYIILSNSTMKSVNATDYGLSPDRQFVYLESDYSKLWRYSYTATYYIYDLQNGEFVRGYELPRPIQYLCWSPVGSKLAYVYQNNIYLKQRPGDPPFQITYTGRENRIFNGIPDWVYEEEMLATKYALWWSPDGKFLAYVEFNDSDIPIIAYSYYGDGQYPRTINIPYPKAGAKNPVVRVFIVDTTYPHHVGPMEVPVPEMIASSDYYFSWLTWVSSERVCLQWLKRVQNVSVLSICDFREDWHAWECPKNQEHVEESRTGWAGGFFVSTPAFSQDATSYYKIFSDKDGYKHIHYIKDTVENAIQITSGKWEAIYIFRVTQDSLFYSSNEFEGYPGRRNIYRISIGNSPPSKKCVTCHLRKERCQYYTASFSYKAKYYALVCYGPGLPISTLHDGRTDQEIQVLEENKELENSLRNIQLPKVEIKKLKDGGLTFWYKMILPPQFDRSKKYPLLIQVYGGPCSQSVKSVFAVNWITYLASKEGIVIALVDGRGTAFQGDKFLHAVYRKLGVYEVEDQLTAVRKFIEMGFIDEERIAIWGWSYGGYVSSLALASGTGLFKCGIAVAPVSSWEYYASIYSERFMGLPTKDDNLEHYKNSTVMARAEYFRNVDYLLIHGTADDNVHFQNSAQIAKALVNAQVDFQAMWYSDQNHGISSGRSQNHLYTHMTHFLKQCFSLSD

B1: FAP binder 28H1 (IgG) (antibody, V domains shown)
VH: EVQLLESGGGLVQPGGSLRLSCAASGFTFSSHAMSWVRQAPGKGLEWVSAIWASGEQYYADSVKGRFTISRDNSKNTLYLQMNSLRAEDTAVYYCAKGWLGNFDYWGQGTLVTVSS
VL: EIVLTQSPGTLSLSPGERATLSCRASQSVSRSYLAWYQQKPGQAPRLLIIGASTRATGIPDRFSGSGSGTDFTLTISRLEPEDFAVYYCQQGQVIPPTFGQGTKVEIK
notes: also called FAP(28H1)
Broadly, the Kd is the equilibrium constant for the complex coming apart. The low end stands for tighter binding, the high end for weaker binding. In the case of B1, in experiment [1], the affinity, expressed as Kd, was 2.6 nM.

B2: DR5(5E11)-28H1 VHCL 2+2 (bispecific antibody, human IgG1, kappa)
heavy: not shown
light: EIVLTQSPGTLSLSPGERATLSCRASQSVSSSYLAWYQQKPGQAPRLLIYGASSRATGIPDRFSGSGSGTDFTLTISRLEPEDFAVYYCQQGTTHPITFGQGTKVEIKRTVAAPSVFIFPPSDEQLKSGTASVVCLLNNFYPREAKVQWKVDNALQSGNSQESVTEQDSKDSTYSLSSTLTLSKADYEKHKVYACEVTHQGLSSPVTKSFNRGEC
chain: EIVLTQSPGTLSLSPGERATLSCRASQSVSRSYLAWYQQKPGQAPRLLIIGASTRATGIPDRFSGSGSGTDFTLTISRLEPEDFAVYYCQQGQVIPPTFGQGTKVEIKSSASTKGPSVFPLAPSSKSTSGGTAALGCLVKDYFPEPVTVSWNSGALTSGVHTFPAVLQSSGLYSLSSVVTVPSSSLGTQTYICNVNHKPSNTKVDKKVEPKSCD
notes: 28H1 CrossFab domain (VHCL) fused to the C-terminus of the anti-DR5 (5E11) heavy chain by a (G4S)4 connector; also called DR5-FAP bispecific antibody; bispecific, tetravalent DR5-FAP CrossMab molecule
As to B2, the binding result in experiment [2] and in experiment [3] was “binds” in each case.

B3: DR5(5E11)-28H1 VHCL 2+2 P329GLALA (bispecific antibody, human IgG1, kappa, L234A L235A)
heavy: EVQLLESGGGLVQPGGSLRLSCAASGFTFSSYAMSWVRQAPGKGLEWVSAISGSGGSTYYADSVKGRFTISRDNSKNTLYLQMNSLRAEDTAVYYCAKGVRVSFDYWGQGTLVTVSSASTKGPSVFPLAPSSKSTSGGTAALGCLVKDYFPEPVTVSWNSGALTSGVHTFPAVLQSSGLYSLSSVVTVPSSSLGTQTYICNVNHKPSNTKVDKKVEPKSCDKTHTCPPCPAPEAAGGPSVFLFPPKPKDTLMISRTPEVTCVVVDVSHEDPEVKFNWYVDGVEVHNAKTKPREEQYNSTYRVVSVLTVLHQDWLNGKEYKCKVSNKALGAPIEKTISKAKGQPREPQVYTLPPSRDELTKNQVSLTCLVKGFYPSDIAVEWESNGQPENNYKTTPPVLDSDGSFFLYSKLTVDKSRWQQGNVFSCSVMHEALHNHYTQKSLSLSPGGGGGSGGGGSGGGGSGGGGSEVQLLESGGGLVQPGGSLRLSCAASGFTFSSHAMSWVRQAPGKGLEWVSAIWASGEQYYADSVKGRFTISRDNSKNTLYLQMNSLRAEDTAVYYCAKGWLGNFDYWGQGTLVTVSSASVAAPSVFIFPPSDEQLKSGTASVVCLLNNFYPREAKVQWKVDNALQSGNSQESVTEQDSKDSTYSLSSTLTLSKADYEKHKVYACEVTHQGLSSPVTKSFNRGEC
light: B2 light
chain: B2 chain
notes: As DR5(5E11)-28H1 VHCL 2+2, with removal of the C-terminal lysine and the P329G/LALA mutation in Fc; also called DR5-FAP bispecific antibody; bispecific, tetravalent DR5-FAP CrossMab molecule
With B3, the binding result in experiment [2] and in experiment [3] was “binds” each time.
